The values that follow are results of earlier work, collected in paper PMC12990809.

Common to all, as to experiment: pulldown
Common to all, as to settings: 20 nM protein, 1.5 uM RNA pool; 20 mM HEPES pH 7.8, 70 mM KCl, 10 mM NaCl, 10% glycerol, 2 mM DTT, 0.1 ug/uL BSA; 30 min, 4 C (protocol of this paper; not …); cited from earlier work

For series [1], the target named is PABPC3 (Homo sapiens) (UniProt Q9H361).
The target in series [2] is mub (Drosophila melanogaster) (UniProt M9NGB9).
In series [3] the target is T1, RBM42 (Homo sapiens) (UniProt Q9BTD8).
T1 sequence: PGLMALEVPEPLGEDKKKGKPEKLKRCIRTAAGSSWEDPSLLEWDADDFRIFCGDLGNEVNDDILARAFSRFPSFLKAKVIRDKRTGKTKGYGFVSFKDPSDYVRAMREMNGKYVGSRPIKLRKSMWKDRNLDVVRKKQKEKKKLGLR

Series [4] concerns the target T2, CG2931 (Drosophila melanogaster) (UniProt Q7JZA8).
T2 sequence: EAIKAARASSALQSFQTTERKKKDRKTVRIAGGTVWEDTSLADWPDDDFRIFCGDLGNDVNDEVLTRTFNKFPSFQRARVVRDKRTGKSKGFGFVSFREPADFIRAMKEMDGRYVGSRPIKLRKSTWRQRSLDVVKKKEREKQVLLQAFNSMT

The target in series [5] is T3, PABPN1 (Homo sapiens) (UniProt Q86U42).
T3 sequence: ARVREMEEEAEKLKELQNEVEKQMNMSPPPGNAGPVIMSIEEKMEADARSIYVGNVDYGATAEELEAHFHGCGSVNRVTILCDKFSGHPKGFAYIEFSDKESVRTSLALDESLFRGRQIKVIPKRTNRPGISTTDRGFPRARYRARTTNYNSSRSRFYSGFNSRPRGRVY

Series [6] addresses T4, qkr58E-1 (Drosophila melanogaster) (UniProt Q7JVR3).
T4 sequence: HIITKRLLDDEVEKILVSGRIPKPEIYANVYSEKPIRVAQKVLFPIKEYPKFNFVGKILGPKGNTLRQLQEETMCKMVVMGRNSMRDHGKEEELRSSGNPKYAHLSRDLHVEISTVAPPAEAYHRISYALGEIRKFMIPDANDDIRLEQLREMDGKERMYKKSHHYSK

The target in series [7] is T5, RBMS1 (Homo sapiens) (UniProt P29558).
T5 sequence: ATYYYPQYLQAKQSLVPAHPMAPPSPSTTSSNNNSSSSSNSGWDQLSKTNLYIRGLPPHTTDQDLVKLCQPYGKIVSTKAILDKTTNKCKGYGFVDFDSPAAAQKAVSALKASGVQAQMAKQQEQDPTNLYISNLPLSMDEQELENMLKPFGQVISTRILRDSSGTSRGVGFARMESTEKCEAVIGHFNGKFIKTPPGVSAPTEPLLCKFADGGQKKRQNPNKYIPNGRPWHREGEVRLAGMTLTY

Series [8] has as its target T6, ESRP2 (Homo sapiens) (UniProt Q9H6T0).
T6 sequence: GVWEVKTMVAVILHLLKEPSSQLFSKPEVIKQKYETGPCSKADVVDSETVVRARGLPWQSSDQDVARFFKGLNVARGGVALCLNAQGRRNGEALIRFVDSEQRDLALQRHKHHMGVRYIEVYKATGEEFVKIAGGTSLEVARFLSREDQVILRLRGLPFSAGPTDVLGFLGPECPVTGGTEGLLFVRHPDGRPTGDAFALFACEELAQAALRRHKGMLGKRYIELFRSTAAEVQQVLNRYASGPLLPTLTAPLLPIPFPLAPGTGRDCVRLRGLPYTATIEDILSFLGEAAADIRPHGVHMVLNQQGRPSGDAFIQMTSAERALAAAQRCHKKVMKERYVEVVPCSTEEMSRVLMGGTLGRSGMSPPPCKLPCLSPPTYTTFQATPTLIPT

The target of series [9] is T7, CPEB2 (Homo sapiens) (UniProt Q7Z5Q1).
T7 sequence: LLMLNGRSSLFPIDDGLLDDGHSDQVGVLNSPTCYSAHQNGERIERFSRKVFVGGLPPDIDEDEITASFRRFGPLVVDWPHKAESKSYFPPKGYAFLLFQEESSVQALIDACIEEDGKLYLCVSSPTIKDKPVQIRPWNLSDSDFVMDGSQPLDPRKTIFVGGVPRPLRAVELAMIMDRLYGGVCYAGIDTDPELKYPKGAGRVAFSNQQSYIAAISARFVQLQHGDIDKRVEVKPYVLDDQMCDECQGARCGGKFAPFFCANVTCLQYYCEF

Series [10] addresses pAbp (Drosophila melanogaster) (UniProt P21187).
Series [11] deals with PABPC1 (Homo sapiens) (UniProt P11940).
Series [12] deals with T8, CNOT4 (Homo sapiens) (UniProt O95628).
T8 sequence: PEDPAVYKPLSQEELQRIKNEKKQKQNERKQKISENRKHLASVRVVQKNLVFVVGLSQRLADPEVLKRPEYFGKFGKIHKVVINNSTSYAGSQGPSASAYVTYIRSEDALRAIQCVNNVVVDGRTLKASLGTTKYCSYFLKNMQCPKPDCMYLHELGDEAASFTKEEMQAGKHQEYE

For series [13], the target named is T9, B52 (Drosophila melanogaster) (UniProt P26686).
T9 sequence: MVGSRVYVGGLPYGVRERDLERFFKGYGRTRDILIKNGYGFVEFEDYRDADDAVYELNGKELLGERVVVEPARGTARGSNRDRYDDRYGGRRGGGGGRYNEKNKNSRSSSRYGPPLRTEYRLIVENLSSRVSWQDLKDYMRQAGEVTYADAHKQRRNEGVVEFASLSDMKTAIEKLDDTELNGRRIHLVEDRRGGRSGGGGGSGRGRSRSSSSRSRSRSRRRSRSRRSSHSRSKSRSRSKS

The target of series [14] is T10, rin (Drosophila melanogaster) (UniProt A0ACM8PZ16).
T10 sequence: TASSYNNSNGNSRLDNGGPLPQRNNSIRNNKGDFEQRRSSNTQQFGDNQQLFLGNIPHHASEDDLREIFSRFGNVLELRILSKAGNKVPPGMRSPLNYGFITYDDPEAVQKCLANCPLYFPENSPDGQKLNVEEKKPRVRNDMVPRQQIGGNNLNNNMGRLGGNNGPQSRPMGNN

In series [15] the target is T11, CG7804 (Drosophila melanogaster) (UniProt Q7JW23).
T11 sequence: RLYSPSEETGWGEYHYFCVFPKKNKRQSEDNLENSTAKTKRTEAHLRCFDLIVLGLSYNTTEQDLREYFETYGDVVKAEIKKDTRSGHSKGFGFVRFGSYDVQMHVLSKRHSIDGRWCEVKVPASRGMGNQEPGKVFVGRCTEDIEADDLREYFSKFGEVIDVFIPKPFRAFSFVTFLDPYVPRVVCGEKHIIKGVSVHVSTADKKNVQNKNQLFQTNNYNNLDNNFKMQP

Series [16] addresses T12, A1CF (Homo sapiens) (UniProt Q9NQ94).
T12 sequence: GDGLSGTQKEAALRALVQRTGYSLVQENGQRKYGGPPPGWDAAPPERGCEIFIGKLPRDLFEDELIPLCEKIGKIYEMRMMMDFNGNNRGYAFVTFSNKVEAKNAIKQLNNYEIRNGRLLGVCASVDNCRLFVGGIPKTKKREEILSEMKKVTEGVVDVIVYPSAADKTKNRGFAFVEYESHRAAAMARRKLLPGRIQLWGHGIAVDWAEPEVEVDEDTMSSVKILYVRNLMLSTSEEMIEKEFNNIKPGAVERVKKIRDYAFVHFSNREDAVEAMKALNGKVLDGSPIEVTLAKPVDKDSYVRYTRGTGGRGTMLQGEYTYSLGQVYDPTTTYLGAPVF

Series [17] addresses T13, CG5213 (Drosophila melanogaster) (UniProt Q7JY27).
T13 sequence: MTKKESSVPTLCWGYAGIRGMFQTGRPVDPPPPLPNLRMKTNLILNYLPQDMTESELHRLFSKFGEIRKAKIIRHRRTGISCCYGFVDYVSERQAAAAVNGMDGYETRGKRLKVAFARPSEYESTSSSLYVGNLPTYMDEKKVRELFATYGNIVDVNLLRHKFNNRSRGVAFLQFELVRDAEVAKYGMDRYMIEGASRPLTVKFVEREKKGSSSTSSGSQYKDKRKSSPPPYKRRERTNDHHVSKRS

Series [18] addresses T14, papi (Drosophila melanogaster) (UniProt Q9VQ91).
T14 sequence: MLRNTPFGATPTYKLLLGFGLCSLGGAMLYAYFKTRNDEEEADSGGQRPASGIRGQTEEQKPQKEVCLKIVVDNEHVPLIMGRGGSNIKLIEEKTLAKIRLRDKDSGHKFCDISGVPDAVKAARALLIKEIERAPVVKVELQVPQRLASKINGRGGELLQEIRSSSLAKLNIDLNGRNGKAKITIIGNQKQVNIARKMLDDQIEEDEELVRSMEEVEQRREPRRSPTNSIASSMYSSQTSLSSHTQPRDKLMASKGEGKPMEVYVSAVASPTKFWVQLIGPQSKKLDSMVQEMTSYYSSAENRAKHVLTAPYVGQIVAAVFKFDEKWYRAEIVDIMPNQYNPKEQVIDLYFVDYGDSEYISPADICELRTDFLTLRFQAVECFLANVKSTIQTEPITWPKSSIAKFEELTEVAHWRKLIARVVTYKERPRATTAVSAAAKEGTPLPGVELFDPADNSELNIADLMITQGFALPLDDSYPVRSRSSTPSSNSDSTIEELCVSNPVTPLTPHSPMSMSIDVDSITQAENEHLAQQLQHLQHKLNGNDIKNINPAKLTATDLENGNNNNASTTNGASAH

The target of series [19] is T15, snf (Drosophila melanogaster) (UniProt P43332).
T15 sequence: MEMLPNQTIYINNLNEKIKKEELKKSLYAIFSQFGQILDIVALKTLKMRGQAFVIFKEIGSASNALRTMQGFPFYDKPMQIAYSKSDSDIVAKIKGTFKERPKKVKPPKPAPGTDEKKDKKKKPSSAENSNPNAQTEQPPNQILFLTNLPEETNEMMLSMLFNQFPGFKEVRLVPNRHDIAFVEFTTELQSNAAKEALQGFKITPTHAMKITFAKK

The target of series [20] is T16, CPEB4 (Homo sapiens) (UniProt Q17RY0).
T16 sequence: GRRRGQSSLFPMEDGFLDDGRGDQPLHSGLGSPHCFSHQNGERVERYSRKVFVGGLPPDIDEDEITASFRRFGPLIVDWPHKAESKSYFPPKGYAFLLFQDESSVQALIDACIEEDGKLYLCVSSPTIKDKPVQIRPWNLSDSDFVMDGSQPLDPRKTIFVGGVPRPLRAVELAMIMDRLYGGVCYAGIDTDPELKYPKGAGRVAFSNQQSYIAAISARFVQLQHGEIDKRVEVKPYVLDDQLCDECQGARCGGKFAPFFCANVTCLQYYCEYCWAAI

Series [21] concerns the target RALY (Homo sapiens) (UniProt Q9UKM9).

Chain of RALY (Homo sapiens) (Q9UKM9 1-136): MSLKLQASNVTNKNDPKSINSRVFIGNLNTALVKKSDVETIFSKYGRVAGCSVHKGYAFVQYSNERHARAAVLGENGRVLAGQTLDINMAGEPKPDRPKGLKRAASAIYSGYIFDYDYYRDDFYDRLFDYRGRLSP
Chain of PABPC1 (Homo sapiens) (P11940 1-414): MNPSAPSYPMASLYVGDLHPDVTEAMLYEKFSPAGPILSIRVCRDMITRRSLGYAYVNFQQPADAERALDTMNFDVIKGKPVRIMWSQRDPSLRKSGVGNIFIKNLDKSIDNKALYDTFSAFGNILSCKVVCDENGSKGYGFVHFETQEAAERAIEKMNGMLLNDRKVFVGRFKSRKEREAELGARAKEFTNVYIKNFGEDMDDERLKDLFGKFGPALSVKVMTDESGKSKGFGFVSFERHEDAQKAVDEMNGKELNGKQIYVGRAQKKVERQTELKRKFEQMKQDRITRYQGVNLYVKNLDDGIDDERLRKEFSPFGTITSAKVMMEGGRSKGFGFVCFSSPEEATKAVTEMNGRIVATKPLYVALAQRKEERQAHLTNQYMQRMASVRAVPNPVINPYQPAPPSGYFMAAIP
Chain of mub (Drosophila melanogaster) (M9NGB9 entry or part of it): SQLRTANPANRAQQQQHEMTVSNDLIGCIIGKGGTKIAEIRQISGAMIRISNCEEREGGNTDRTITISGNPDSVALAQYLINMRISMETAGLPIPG
Chain of pAbp (Drosophila melanogaster) (P21187 1-408): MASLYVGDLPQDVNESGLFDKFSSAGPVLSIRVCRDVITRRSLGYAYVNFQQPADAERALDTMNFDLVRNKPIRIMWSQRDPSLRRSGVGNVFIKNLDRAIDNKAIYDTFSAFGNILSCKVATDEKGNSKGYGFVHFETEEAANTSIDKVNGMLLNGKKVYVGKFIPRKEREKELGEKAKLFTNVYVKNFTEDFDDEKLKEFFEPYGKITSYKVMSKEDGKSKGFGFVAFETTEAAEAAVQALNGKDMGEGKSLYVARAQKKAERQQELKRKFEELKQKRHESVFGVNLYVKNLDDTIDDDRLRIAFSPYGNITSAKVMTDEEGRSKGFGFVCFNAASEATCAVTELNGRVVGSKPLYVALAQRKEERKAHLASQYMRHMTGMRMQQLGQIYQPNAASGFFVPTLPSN
Chain of PABPC3 (Homo sapiens) (Q9H361 1-414): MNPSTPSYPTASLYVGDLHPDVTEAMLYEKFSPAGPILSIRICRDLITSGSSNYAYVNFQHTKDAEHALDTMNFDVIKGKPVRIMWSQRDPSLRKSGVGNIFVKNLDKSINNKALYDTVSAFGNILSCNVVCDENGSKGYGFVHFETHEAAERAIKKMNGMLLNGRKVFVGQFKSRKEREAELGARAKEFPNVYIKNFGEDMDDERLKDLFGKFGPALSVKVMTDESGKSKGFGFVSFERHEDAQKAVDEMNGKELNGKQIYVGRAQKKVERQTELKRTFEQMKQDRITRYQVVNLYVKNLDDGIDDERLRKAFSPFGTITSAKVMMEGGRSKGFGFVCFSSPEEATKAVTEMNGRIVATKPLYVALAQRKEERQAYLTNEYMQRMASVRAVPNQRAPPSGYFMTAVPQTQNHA

With AAAACC [RNAcompete motif RNCMPT00153], in series [1], the binding signal (z-score (mean of top ten 7-mers)) is 8.16.

For AACCCU [RNAcompete motif RNCMPT00137], in [2], the binding signal (z-score (mean of top ten 7-mers)) was 10.1. On to AACUANG [RNAcompete motif RNCMPT00151], for which the binding signal (z-score (mean of top ten 7-mers)) in [3] is 11.2. Regarding ACUAAG [RNAcompete motif RNCMPT00147], the binding signal (z-score (mean of top ten 7-mers)) in series [4] was 11.6. On to AGAAGA [RNAcompete motif RNCMPT00157], for which the binding signal (z-score (mean of top ten 7-mers)) in series [5] is 11.4. As for ANAAUAA [RNAcompete motif RNCMPT00142], the binding signal (z-score (mean of top ten 7-mers)) in series [6] was 6.18. As to AUAUAG [RNAcompete motif RNCMPT00152], the binding signal (z-score (mean of top ten 7-mers)) in [7] is 7.69. Consider AUGGGGA [RNAcompete motif RNCMPT00150], for which the binding signal (z-score (mean of top ten 7-mers)) in [8] is 7.36. CCUUUUU [RNAcompete motif RNCMPT00012]: in [9], the binding signal (z-score (mean of top ten 7-mers)) was 10.8. With GAAAA [RNAcompete motif RNCMPT00139], the binding signal (z-score (mean of top ten 7-mers)) in series [10] was 13. As to GAAAAA [RNAcompete motif RNCMPT00155], in series [11], the binding signal (z-score (mean of top ten 7-mers)) is 11.3. With GACAGA [RNAcompete motif RNCMPT00156], the binding signal (z-score (mean of top ten 7-mers)) in [12] was 19. For the substance GGAGGGG [RNAcompete motif RNCMPT00134], in series [13], the binding signal (z-score (mean of top ten 7-mers)) was 7.73. As to GGGUGGG [RNAcompete motif RNCMPT00138], the binding signal (z-score (mean of top ten 7-mers)) in series [14] is 9.16. Consider GNGUG [RNAcompete motif RNCMPT00146], for which the binding signal (z-score (mean of top ten 7-mers)) in [15] is 8.15. For the substance UAAUUG [RNAcompete motif RNCMPT00001], in [16], the binding signal (z-score (mean of top ten 7-mers)) was 12.6. Consider UACUUU [RNAcompete motif RNCMPT00010], for which the binding signal (z-score (mean of top ten 7-mers)) in series [17] is 11.8. As to UNUGUGU [RNAcompete motif RNCMPT00011], the binding signal (z-score (mean of top ten 7-mers)) in [18] was 17.7.

With UUGCACA [RNAcompete motif RNCMPT00145], in series [19], the binding signal (z-score (mean of top ten 7-mers)) is 14. As to UUUUUU [RNAcompete motif RNCMPT00158], the binding signal (z-score (mean of top ten 7-mers)) in [20] was 14.8. As to UUUUUU [RNAcompete motif RNCMPT00159], the binding signal (z-score (mean of top ten 7-mers)) in [21] is 16.1.
